Data as given in patent publication US20110129459A1 (Chugai, published 2011).
Where “and” joins values, the source holds several entries; their conditions need not be identical. Equal values may be shown once. Read-outs that look alike come from different tables or passages of the source.

Experiments:
[1] = target: T1, cytoplasmic domain-lacking human NR10 on CHO cells (hNR10-expressing CHO cells) (human, UniProt Q8NI17 20-553); experiment: FMAT competition on hNR10-expressing CHO cells: antibody titrated against FMAT Blue-labeled hIL-31; FL1 = cell-bound labeled hIL-31
T1 construct: also called NR10-expressing cells
T1 sequence: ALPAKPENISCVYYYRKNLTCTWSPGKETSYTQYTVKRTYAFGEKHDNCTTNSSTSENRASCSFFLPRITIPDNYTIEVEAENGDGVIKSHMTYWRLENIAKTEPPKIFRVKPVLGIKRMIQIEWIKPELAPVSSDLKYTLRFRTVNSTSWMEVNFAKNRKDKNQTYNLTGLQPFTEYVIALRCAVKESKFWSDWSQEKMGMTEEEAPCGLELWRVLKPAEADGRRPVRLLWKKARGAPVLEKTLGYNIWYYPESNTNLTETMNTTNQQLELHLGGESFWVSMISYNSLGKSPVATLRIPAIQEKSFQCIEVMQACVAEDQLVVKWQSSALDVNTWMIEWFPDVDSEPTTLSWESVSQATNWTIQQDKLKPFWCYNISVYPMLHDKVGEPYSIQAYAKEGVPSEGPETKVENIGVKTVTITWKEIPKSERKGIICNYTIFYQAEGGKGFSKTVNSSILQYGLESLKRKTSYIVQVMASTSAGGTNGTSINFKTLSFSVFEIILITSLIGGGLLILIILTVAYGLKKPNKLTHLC
Procedure: (§1) Human IL-31 (R&D Systems) was labeled with FMAT Blue Monofunctional Reactive Dye (Applied Biosystems). 100 μl of hIL-31 prepared at 0.5 mg/ml using 50 mM sodium phosphate buffer (pH 8.0) was mixed with 5.25 μl of 25 nmoles FMAT Blue dissolved in DMSO (Junsei). After vortexing, the mixture was allowed to stand at room temperature for 15 minutes. The FMAT Blue-conjugating reaction with hIL-31 was terminated by adding 5 μl of 1 M Tris-HCl (pH 7.4) and 1.1 μl of 10% Tween20, and then FMAT Blue-labeled hIL-31 and unreacted FMAT Blue were separated by gel filtration using Superdex 75 (GE Healthcare, 17-0771-01) column with 0.1% Tween20/PBS developing solution.
(§2) Antibodies were assessed for the activity of inhibiting the IL-31/NR10 binding by using hNR10-expressing CHO cells as described below. The chimeric NS22 antibody and NS22_H0L0 (H chain, H0-SKSC/SEQ ID NO: 54; L chain, L0/SEQ ID NO: 56) were diluted at an appropriate concentration using Assay buffer (10 mM HEPES, 140 mM NaCl, 2.5 mM CaCl₂, 3 mM MgCl₂, 2% FBS, 0.01% NaN₃, pH7.4), and further eight serial dilutions were prepared at a common dilution ration of 2. The dilutions were added at 40 μl/well to plates (96-Well FMAT Plates, Applied Biosystems). Then, FMAT Blue-labeled hIL-31 was diluted 400 times with Assay buffer, and added at 20 μl/well. Finally, a cell suspension adjusted to 2.5×10⁵ cells/ml using Assay buffer was added at 40 μl/well (final 1×10⁴ cells/well). Two hours after addition of cells, the fluorescence (FL1) was measured using the 8200 Cellular Detection System (Applied Biosystems).

[2] = target: T2, rhNR10 (recombinant human NR10) (human, UniProt Q8NI17 20-519, limits assumed); experiment: SPR, Biacore T100; antibody captured on Protein A, rhNR10 as analyte
T2 construct: also called IL-31 receptor; IL31RA
T2 sequence: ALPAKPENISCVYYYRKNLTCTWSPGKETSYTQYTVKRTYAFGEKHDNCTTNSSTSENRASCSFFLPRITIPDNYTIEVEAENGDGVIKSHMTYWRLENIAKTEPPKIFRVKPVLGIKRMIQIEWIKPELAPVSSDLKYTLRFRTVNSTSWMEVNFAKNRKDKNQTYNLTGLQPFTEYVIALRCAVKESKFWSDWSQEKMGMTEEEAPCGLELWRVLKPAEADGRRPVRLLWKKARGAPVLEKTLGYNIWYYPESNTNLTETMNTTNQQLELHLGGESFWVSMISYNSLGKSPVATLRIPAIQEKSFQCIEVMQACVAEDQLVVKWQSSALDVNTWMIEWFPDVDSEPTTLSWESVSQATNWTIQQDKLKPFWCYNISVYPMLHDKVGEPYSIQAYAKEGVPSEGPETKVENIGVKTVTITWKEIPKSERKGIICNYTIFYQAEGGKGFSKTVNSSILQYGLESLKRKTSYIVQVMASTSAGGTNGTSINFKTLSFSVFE
Procedure: (§3) Kinetic analysis of the antigen-antibody reaction was carried out using Biacore T100 (GE Healthcare Biosciences). The antigen-antibody interaction was measured by immobilizing rec-Protein A (hereinafter Protein A) (ZYMED) onto a sensor chip, capturing an antibody on the immobilized Protein A, and then reacting the antigen as an analyte. Various concentrations of rhNR10 were used as the antigen. The kinetic parameters, association rate constant kₐ (1/Ms) and dissociation rate constant kd (1/s), were calculated from the sensorgrams obtained by the measurement. Then, KD (M) was determined based on the rate constants. Each parameter was determined using Biacore T100 Evaluation Software version 1.1 (GE Healthcare Biosciences).
(§4) The running buffer used was HBS-EP+. Each antibody was prepared at 0.25 μg/ml, or prepared so that about 100 RU would bind to Protein A. rhNR10 used as an analyte was prepared at 0, 38.5, 77.0, and 154 nM, or at 0, 19.25, and 77.01 nM using HBS-EP+. In the measurement, first, the antibody solution was captured on Protein A, and an analyte solution was reacted at a flow rate of 20 μL/min for three minutes. Then, the solution was switched to HBS-EP+, and the dissociation phase was measured for five minutes. After measurement of the dissociation phase, the sensor chip was regenerated by washing with 10 mM glycine-HCl (pH 1.5). The obtained sensorgrams were kinetically analyzed using the Biacore-specific data analysis software, Biacore T100 Evaluation Software Version 1.1.

[3] = target: T1, cytoplasmic domain-lacking human NR10 …; experiment: FMAT competition on hNR10-expressing CHO cells: antibody titrated against FMAT Blue-labeled hIL-31; FL1 = cell-bound labeled hIL-31; mean±S.D. (n=3)
Procedure: as §2
Each variant was tested for the activity of inhibiting the hIL-31/hNR10 binding by using FMAT. The test was carried out according to the method as described in Example 4.

[4] = target: T2, rhNR10 (recombinant human NR10); experiment: SPR, Biacore T100; antibody captured on Protein A, rhNR10 as analyte; remark: listed apart in the source
Procedure: as §3, §4

[5] = target: T2, rhNR10 (recombinant human NR10); experiment: as above; remark: listed apart in the source
Procedure: as §3, §4

[6] = target: T1, cytoplasmic domain-lacking human NR10 …; experiment: FMAT competition on hNR10-expressing CHO cells: antibody titrated against FMAT Blue-labeled hIL-31; FL1 = cell-bound labeled hIL-31; remark: listed apart in the source
Procedure: as §1
NS22 and NA633 (the constant region of each is γ1, κ) were diluted at an appropriate concentration using Assay buffer (10 mM HEPES, 140 mM NaCl, 2.5 mM CaCl₂, 3 mM MgCl₂, 2% FBS, 0.01% NaN₃), and then seven serial dilutions were prepared at a common dilution ratio of 2. The dilutions were added at 40 μl/well to plates (96-Well FMAT Plates; Applied Biosystems). Then, FMAT Blue-labeled hIL-31 was diluted 400 times with Assay buffer and added at 20 μl/well. Finally, cell suspensions adjusted to 2.5×10⁵ cells/ml using Assay buffer were added at 40 μl/well (final 1×10⁴ cells/well). Two hours after addition of cells, the fluorescence (FL1) was determined using the 8200 Cellular Detection System (Applied Biosystems).

[7] = target: T1, cytoplasmic domain-lacking human NR10 …; experiment: FMAT competition on hNR10-expressing CHO cells: unlabeled chimeric antibody titrated against 8.8x10^-2 µg/ml FMAT Blue-NS22; FL1 = cell-bound labeled NS22
Procedure: The antibody NS22 purified from a hybridoma culture supernatant was labeled with FMAT Blue (Applied Biosystems, 4328853). 170 μl of NS22 prepared at 1 mg/ml in PBS was mixed with 17 μl of 1 M NaHCO₃ solution and 3.4 μl of FMAT Blue (17 nmoles) dissolved in DMSO. After vortexing, the mixture was allowed to stand at room temperature for 30 minutes. The FMAT Blue conjugating reaction with NS22 was terminated by adding 8 μl of 1 M Tris-HCl (pH 7.4) and 1.9 μl of 1% Tween 20, and then FMAT Blue-labeled NS22 (FMAT Blue-NS22) and unreacted FMAT Blue were separated by gel filtration using Superdex 75 (GE Healthcare, 17-0771-01) column with 0.01% Tween20/PBS developing solution.
Each antibody was examined for inhibition of the binding of the prepared FMAT Blue-NS22 to hNR10-expressing CHO cells (Referential Example 3) using the 8200 Cellular Detection System (Applied Biosystems, 4342920). The chimeric anti-NR10 antibodies (the constant region of each is γ1, κ) were added at various concentrations to each well containing 7500 cells and 8.8×10⁻² μg/ml FMAT Blue-NS22. The cells were allowed to stand in the dark for four hours, and then the fluorescent signal from FMAT Blue bound to the cells was measured. […] The fluorescence value FL1, which represents the binding of FMAT Blue-NS22 to NR10-expressing cells, was reduced with the increase in the concentration of antibody NS22 or NS23.

B1: humanized NS22 H0L0 with constant region SKSC (H0L0-SKSC) (antibody)
heavy: QVQLVQSGAEVKKPGASVKVSCKASGYTFTGYIMNWVRQAPGQGLEWMGLINPYNGGTSYNQKFKGRVTITADESTSTAYMELSSLRSEDTAVYYCARDGYDDGPYTMDYWGQGTLVTVSSASTKGPSVFPLAPSSKSTSESTAALGCLVKDYFPEPVTVSWNSGALTSGVHTFPAVLQSSGLYSLSSVVTVPSSNFGTQTYTCNVDHKPSNTKVDKTVERKSCVECPPCPAPPVAGPSVFLFPPKPKDTLMISRTPEVTCVVVDVSHEDPEVQFNWYVDGVEVHNAKTKPREEQFNSTFRVVSVLTVVHQDWLNGKEYKCKVSNKGLPAPIEKTISKTKGQPREPQVYTLPPSREEMTKNQVSLTCLVKGFYPSDIAVEWESNGQPENNYKTTPPMLDSDGSFFLYSKLTVDKSRWQQGNVFSCSVMHEALHNHYTQKSLSLSPGK
light: DIQMTQSPSSLSASVGDRVTITCRTSENIYSFLAWYQQKPGKAPKLLIYNAKTLAKGVPSRFSGSGSGTDFTLTISSLQPEDFATYYCQHHYESPLTFGGGTKVEIKRTVAAPSVFIFPPSDEQLKSGTASVVCLLNNFYPREAKVQWKVDNALQSGNSQESVTEQDSKDSTYSLSSTLTLSKADYEKHKVYACEVTHQGLSSPVTKSFNRGEC
IC50 (read off the curve) [1]: ~0.1 mg/L
Kd [2]: 3.2 nM and 5.1 nM
koff [2]: 0.00062 s⁻¹ and 0.00074 s⁻¹
kon [2]: 190000 M⁻¹ s⁻¹ and 150000 M⁻¹ s⁻¹
IC50 (read off the curve) [3]: ~0.1 mg/L
Kd [4]: 3.3 nM
koff [4]: 0.0012 s⁻¹
kon [4]: 370000 M⁻¹ s⁻¹
Kd [5]: 3.2 nM
koff [5]: 0.00091 s⁻¹
kon [5]: 290000 M⁻¹ s⁻¹

B2: chimeric NA633 (human gamma1, kappa) (antibody, V domains shown)
VH: DVQLRESGPGLVKPSQSLSLTCTVTGYSITSDYAWNWIRQFPGNKLEWMGYISYSGSTSYNPSLKSRVSITRDTSKNQFFLQLNSVTTEDTATYYCAPMITTDWFFDVWGAGTTVTVSS
VL: DIVMTQSPATLSVTPGDRVSLSCRASHDISDFLHWYQQKSHESPRLLIKYASQSISGIPSRFSGSGSGSDFTLSINSVEPEDVGVYYCQNGHSFPWTFGGGTKLEIK
notes: Mouse variable regions with human constant regions (H chain gamma1)
binding result [6]: binds

B3: chimeric NS22 (human gamma1, kappa) (antibody, V domains shown)
VH: EVQLQQSGPELVKPGASMKISCKASGYSFTGYIMNWVKQSHGKNLEWIGLINPYNGGTSYNQKFKGKATLTVDKSSSTAYMELLSLTSEDSAVYYCARDGYDDGPYTMDYWGQGTSVTVSS
VL: DIQMTQSPASLSASVGETVTITCRTSENIYSFLAWYQQKQGKSPHLLVYNAKTLAKGVPSRFSGSGSGTQFSLKINSLQPEDFGSYFCQHHYESPLTFGGGTKLEIK
notes: also called chimeric NS22 antibody; the chimeric antibody
IC50 (read off the curve) [7]: ~0.5 mg/L
IC50 (read off the curve) [1]: ~0.1 mg/L

B4: chimeric NS23 (human gamma1, kappa) (antibody, V domains shown)
VH: EVQLQQSGPELVKPGTSMKISCKASGYSFTGYIMNWVKQSHGKNLEWIGLINPYNGGAEYNQKFKDKATFTVDKSSSTAYMELLSLTSEDSAVYYCARDGYDDGPYTMDYWGQGTSVTVSS
VL: DIQMTQSPASLSASVGETVTFTCRANENIYSYLAWYQQKQGKSPQLLVYNAKTLAEGVPSRFSGSGSGTQFSLKINSLQPEDFGSYYCQHHYGTPPTFGGGTKLEIK
IC50 (read off the curve) [7]: ~0.5 mg/L
